# Laboratory results: PMC9253567
# Where “and” joins values, the source holds several entries; their conditions need not be identical. Equal entries are not always repeated.
# B1: FLAG-tagged ZAPS WT (zinc finger antiviral protein, short isoform), Q7Z2W4-2 1-699 (natural protein)
# chain: MADPEVCCFITKILCAHGGRMALDALLQEIALSEPQLCEVLQVAGPDRFVVLETGGEAGITRSVVATTRARVCRRKYCQRPCDNLHLCKLNLLGRCNYSQSERNLCKYSHEVLSEENFKVLKNHELSGLNKEELAVLLLQSDPFFMPEICKSYKGEGRQQICNQQPPCSRLHICDHFTRGNCRFPNCLRSHNLMDRKVLAIMREHGLNPDVVQNIQDICNSKHMQKNPPGPRAPSSHRRNMAYRARSKSRDRFFQGSQEFLASASASAERSCTPSPDQISHRASLEDAPVDDLTRKFTYLGSQDRARPPSGSSKATDLGGTSQAGTSQRFLENGSQEDLLHGNPGSTYLASNSTSAPNWKSLTSWTNDQGARRKTVFSPTLPAARSSLGSLQTPEAVTTRKGTGLLSSDYRIINGKSGTQDIQPGPLFNNNADGVATDITSTRSLNYKSTSSGHREISSPRIQDAGPASRDVQATGRIADDADPRVALVNDSLSDVTSTTSSRVDDHDSEEICLDHLCKGCPLNGSCSKVHFHLPYRWQMLIGKTWTDFEHMETIEKGYCNPGIHLCSVGSYTINFRVMSCDSFPIRRLSTPSSVTKPANSVFTTKWIWYWKNESGTWIQYGEEKDKRKNSNVDSSYLESLYQSCPRGVVPFQAGSRNYELSFQGMIQTNIASKTQKDVIRRPTFVPQWYVQQMKRGPE
# Molecular target: myc-tagged TRIM25 WT (tripartite motif-containing protein 25), Q14258
# Assay: co-IP; myc IP (anti-myc beads) of myc-TRIM25 WT from lysates of ZAP KO 293T cells co-transfected with FLAG-ZAPS or FLAG-ZAPL WT or mutants; FLAG-ZAP detected by immunoblot; FLAG IP buffer (100 mM Tris-HCl 8.0, 150 mM NaCl, 5 mM EDTA, 1 mM DTT, 5% glycerol, 0.1% NP-40), 4°C, 45 min; FLAG IP band divided by myc IP band (ImageJ)
# Details: remark: other sources report otherwise
# Sequence of myc-tagged TRIM25 WT (tripartite motif-containing protein 25), Q14258 (Q14258 whole entry): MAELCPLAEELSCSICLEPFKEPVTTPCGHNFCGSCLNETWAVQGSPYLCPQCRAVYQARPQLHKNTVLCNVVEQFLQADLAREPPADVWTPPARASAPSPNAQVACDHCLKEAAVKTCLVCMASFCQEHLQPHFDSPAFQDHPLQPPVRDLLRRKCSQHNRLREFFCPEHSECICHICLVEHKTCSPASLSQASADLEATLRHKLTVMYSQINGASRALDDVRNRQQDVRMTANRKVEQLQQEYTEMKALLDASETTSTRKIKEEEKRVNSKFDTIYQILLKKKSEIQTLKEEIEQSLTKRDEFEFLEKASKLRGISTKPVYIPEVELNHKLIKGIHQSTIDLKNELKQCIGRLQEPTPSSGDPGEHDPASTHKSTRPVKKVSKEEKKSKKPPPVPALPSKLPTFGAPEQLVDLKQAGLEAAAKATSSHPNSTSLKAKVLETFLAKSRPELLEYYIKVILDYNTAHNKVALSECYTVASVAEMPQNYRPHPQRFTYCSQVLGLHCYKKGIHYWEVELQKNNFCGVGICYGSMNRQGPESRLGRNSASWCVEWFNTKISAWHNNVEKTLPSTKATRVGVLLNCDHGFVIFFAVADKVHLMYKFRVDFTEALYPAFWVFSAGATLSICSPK
binder,measurement,value
B1,"ZAP-TRIM25 interaction (co-IP, FLAG-ZAP band over myc-TRIM25 band, ImageJ)",0.131 and 0.304
